Results reported in publication PMC2191965 (The Journal of Experimental Medicine, 1995).

What was measured:
[1] = molecular target: T1, I-As (Mus musculus, UniProt P06345+P14437); type: binding; settings: purified I-As; compared with ROIV or with wild-type peptide
T1 sequence (P14437 1-233): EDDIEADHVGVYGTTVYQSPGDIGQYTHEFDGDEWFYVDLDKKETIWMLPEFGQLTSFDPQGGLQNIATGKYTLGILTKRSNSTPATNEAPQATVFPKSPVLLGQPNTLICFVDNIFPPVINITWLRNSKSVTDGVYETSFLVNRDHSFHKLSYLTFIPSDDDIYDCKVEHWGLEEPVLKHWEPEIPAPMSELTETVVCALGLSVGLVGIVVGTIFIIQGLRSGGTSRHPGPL
T1 sequence (P06345 28-263): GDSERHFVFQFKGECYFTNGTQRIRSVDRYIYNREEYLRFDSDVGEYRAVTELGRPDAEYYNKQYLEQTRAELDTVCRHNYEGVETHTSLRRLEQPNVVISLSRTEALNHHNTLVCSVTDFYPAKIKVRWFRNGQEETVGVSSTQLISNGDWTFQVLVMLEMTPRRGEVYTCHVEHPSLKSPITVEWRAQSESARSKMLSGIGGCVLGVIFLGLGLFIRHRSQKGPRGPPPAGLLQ

[2] = molecular target: T2, I-Ab (Mus musculus, UniProt P14434+P14483); settings: purified I-Ab; compared with binding to I-As or with wild-type peptide
T2 sequence (P14434 24-256): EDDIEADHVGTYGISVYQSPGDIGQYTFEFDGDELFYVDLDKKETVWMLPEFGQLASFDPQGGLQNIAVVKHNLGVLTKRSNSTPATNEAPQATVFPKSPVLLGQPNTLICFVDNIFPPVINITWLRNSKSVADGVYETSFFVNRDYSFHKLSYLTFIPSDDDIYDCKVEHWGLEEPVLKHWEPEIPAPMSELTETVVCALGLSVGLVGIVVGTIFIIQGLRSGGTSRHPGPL
T2 sequence (P14483 28-265): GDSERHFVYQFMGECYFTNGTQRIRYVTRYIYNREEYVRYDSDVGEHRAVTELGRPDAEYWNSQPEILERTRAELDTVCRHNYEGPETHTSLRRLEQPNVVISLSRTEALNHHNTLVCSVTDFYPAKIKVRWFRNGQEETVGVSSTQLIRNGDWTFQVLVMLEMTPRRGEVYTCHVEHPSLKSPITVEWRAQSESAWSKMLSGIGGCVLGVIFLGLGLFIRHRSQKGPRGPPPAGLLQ

Binding to I-As, in words [1]: as well as the ROW
Binding to I-Ab, in words [2]: far less affinity
Substance: myelin basic protein 81-100: I-As-restricted epitope myelin basic protein 81-100 (HPADPGNRPHLIRLFSRDAP; UniProt P04370 81-100, looked up, fragment)
